Values quoted from earlier work in article PMC10298792.

Key:
Bid BH3 (Homo sapiens) = Bid BH3 (Homo sapiens) (UniProt P55957); assay: ITC
Pxt1 BH3 (Homo sapiens) = Pxt1 BH3 (Homo sapiens) (UniProt Q8NFP0); assay: ITC
Chain of Pxt1 BH3 (Homo sapiens) (Q8NFP0 76-101): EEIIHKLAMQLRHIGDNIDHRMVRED

Chain of Bcl-xL (Q07817 whole entry): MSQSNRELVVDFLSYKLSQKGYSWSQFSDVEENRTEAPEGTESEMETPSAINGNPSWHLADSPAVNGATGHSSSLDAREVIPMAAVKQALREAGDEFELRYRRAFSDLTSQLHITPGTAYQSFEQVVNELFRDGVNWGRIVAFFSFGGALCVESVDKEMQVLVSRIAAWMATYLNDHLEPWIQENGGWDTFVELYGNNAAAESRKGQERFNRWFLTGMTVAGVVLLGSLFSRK
Chain of Bak (Q16611 2-211): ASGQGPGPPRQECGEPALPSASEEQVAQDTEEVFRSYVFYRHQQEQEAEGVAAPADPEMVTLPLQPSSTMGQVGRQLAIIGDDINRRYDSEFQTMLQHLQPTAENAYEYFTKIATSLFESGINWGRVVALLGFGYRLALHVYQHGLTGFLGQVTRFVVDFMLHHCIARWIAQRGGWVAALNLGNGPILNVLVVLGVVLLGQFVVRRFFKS

Kd (Bid BH3 (Homo sapiens))	Kd (Pxt1 BH3 (Homo sapiens))	Substance
8.62 nM	233 nM	Bcl-xL (from UniProt Q07817)
22700 nM	–	Bak (from UniProt Q16611)
